For this assay, the target named is NS1 of rgPR8-NS1-WT virus (Influenza A virus A/Puerto …, UniProt P03496). In words: Western blot. To be noted: one partner purified.

1 molecule from article PMC5025888 (Scientific Reports, 2016) can be followed below.

Sequence of NS1 of rgPR8-NS1-WT virus (P03496 whole entry): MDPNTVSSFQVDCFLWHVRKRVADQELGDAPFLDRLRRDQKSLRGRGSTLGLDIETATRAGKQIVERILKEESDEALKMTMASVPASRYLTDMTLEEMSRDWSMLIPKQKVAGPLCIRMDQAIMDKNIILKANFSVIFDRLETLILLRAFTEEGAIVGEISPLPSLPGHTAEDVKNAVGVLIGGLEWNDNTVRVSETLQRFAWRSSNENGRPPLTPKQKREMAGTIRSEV

B1: monoclonal antibody 2H6 (antibody, V domains shown)
VH: DVKLVESGGGLVNLGGSLKLSCAASGFTFSRYYMSWVRQTPEKRLELVAAINHNSGRTYYSDTVKGRFTISRDNAKNTLYLQMSSLKSEDTALYYCTRHPLIYHGNYLDYWGQGTTLTVSS
VL: DIVLTQSPASLAVSLGQRATISCKASQSVDYDGDSYVTWYQQKPGQPPKLLIYVASNLESGIPARFSGSGSGTDFTLNIHPVEEEDAATYYCQQSNEDPWTFGGGTKLEIK
Consider B1, for which the binding result was “binds”.
